Assay results taken from patent publication US20150023959A1 (BIOVERATIV THERAPEUTICS, published 2015).

Target: T1, FVIII-155/VWF-031 heterodimer
T1 construct: The two chains are held together by disulfide bonds between the Fc regions; also called FVIII155/VWF31 heterodimer; FVIII155:VWF31
Test: Octet BLI, heterodimer immobilized on protein G sensor, FVIII in solution
Description: For the assay, full length VWF was captured by using APS sensor. The binding of FVIIIFc and FVIII to the full-length VWF is shown at the lower left panel. The lack of binding of FVIIIY1680 (a mutant having no affinity for VWF) and FVIII:VWF heterodimer (FVIII155/VWF031) is shown at the lower right panel. […] The binding of the constructs to FVIII was measured.
The same experiment was performed in reverse orientation to determine if the D′D3 portion in the FVIII-VWF heterodimer can interact with other FVIII molecules not covalently attached to D′D3. […] Protein G alone with FVIII was used as control. These binding experiments confirmed that D′D3 in heterodimer can interact with only one FVIII molecule which is covalently attached to it and prevent FVIII from interacting with full length wild type VWF molecules.

T1 sequence (chain, as listed by the source): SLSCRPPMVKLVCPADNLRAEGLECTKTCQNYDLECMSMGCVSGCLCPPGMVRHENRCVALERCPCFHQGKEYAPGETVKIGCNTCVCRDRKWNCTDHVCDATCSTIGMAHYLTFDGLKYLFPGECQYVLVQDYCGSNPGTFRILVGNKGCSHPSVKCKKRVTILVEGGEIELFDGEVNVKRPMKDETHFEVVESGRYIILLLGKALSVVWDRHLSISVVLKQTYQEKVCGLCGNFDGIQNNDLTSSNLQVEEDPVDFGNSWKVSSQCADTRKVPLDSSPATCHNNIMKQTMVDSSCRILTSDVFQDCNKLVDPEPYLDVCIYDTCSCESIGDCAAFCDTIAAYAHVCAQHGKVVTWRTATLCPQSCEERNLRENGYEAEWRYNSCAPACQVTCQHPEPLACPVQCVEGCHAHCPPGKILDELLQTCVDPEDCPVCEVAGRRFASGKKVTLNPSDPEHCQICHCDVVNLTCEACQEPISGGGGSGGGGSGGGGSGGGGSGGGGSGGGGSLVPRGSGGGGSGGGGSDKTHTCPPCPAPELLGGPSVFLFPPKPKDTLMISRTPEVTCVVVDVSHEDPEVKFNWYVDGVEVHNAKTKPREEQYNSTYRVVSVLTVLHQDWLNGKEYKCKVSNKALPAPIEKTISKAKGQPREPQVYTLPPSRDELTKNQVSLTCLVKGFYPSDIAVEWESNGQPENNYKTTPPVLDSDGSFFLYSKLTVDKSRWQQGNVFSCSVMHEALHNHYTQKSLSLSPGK

binding result: no binding
B1: rFVIII (other)
chain: ATRRYYLGAVELSWDYMQSDLGELPVDARFPPRVPKSFPFNTSVVYKKTLFVEFTDHLFNIAKPRPPWMGLLGPTIQAEVYDTVVITLKNMASHPVSLHAVGVSYWKASEGAEYDDQTSQREKEDDKVFPGGSHTYVWQVLKENGPMASDPLCLTYSYLSHVDLVKDLNSGLIGALLVCREGSLAKEKTQTLHKFILLFAVFDEGKSWHSETKNSLMQDRDAASARAWPKMHTVNGYVNRSLPGLIGCHRKSVYWHVIGMGTTPEVHSIFLEGHTFLVRNHRQASLEISPITFLTAQTLLMDLGQFLLFCHISSHQHDGMEAYVKVDSCPEEPQLRMKNNEEAEDYDDDLTDSEMDVVRFDDDNSPSFIQIRSVAKKHPKTWVHYIAAEEEDWDYAPLVLAPDDRSYKSQYLNNGPQRIGRKYKKVRFMAYTDETFKTREAIQHESGILGPLLYGEVGDTLLIIFKNQASRPYNIYPHGITDVRPLYSRRLPKGVKHLKDFPILPGEIFKYKWTVTVEDGPTKSDPRCLTRYYSSFVNMERDLASGLIGPLLICYKESVDQRGNQIMSDKRNVILFSVFDENRSWYLTENIQRFLPNPAGVQLEDPEFQASNIMHSINGYVFDSLQLSVCLHEVAYWYILSIGAQTDFLSVFFSGYTFKHKMVYEDTLTLFPFSGETVFMSMENPGLWILGCHNSDFRNRGMTALLKVSSCDKNTGDYYEDSYEDISAYLLSKNNAIEPRSFSQNPPVLKRHQREITRTTLQSDQEEIDYDDTISVEMKKEDFDIYDEDENQSPRSFQKKTRHYFIAAVERLWDYGMSSSPHVLRNRAQSGSVPQFKKVVFQEFTDGSFTQPLYRGELNEHLGLLGPYIRAEVEDNIMVTFRNQASRPYSFYSSLISYEEDQRQGAEPRKNFVKPNETKTYFWKVQHHMAPTKDEFDCKAWAYFSDVDLEKDVHSGLIGPLLVCHTNTLNPAHGRQVTVQEFALFFTIFDETKSWYFTENMERNCRAPCNIQMEDPTFKENYRFHAINGYIMDTLPGLVMAQDQRIRWYLLSMGSNENIHSIHFSGHVFTVRKKEEYKMALYNLYPGVFETVEMLPSKAGIWRVECLIGEHLHAGMSTLFLVYSNKCQTPLGMASGHIRDFQITASGQYGQWAPKLARLHYSGSINAWSTKEPFSWIKVDLLAPMIIHGIKTQGARQKFSSLYISQFIIMYSLDGKKWQTYRGNSTGTLMVFFGNVDSSGIKHNIFNPPIIARYIRLHPTHYSIRSTLRMELMGCDLNSCSMPLGMESKAISDAQITASSYFTNMFATWSPSKARLHLQGRSNAWRPQVNNPKEWLQVDFQKTMKVTGVTTQGVKSLLTSMYVKEFLISSSQDGHQWTLFFQNGKVKVFQGNQDSFTPVVNSLDPPLLTRYLRIHPQSWVHQIALRMEVLGCEAQDLY
notes: also called wild type FVIII
